We go through two substances from PMC8924993.

This assay deals with integrin αIIbβ3 (human (endogenous in HEL)) (UniProt P08514). The experiment in a line: proximity ligation.

Sequence of talin (Q9Y490 whole entry): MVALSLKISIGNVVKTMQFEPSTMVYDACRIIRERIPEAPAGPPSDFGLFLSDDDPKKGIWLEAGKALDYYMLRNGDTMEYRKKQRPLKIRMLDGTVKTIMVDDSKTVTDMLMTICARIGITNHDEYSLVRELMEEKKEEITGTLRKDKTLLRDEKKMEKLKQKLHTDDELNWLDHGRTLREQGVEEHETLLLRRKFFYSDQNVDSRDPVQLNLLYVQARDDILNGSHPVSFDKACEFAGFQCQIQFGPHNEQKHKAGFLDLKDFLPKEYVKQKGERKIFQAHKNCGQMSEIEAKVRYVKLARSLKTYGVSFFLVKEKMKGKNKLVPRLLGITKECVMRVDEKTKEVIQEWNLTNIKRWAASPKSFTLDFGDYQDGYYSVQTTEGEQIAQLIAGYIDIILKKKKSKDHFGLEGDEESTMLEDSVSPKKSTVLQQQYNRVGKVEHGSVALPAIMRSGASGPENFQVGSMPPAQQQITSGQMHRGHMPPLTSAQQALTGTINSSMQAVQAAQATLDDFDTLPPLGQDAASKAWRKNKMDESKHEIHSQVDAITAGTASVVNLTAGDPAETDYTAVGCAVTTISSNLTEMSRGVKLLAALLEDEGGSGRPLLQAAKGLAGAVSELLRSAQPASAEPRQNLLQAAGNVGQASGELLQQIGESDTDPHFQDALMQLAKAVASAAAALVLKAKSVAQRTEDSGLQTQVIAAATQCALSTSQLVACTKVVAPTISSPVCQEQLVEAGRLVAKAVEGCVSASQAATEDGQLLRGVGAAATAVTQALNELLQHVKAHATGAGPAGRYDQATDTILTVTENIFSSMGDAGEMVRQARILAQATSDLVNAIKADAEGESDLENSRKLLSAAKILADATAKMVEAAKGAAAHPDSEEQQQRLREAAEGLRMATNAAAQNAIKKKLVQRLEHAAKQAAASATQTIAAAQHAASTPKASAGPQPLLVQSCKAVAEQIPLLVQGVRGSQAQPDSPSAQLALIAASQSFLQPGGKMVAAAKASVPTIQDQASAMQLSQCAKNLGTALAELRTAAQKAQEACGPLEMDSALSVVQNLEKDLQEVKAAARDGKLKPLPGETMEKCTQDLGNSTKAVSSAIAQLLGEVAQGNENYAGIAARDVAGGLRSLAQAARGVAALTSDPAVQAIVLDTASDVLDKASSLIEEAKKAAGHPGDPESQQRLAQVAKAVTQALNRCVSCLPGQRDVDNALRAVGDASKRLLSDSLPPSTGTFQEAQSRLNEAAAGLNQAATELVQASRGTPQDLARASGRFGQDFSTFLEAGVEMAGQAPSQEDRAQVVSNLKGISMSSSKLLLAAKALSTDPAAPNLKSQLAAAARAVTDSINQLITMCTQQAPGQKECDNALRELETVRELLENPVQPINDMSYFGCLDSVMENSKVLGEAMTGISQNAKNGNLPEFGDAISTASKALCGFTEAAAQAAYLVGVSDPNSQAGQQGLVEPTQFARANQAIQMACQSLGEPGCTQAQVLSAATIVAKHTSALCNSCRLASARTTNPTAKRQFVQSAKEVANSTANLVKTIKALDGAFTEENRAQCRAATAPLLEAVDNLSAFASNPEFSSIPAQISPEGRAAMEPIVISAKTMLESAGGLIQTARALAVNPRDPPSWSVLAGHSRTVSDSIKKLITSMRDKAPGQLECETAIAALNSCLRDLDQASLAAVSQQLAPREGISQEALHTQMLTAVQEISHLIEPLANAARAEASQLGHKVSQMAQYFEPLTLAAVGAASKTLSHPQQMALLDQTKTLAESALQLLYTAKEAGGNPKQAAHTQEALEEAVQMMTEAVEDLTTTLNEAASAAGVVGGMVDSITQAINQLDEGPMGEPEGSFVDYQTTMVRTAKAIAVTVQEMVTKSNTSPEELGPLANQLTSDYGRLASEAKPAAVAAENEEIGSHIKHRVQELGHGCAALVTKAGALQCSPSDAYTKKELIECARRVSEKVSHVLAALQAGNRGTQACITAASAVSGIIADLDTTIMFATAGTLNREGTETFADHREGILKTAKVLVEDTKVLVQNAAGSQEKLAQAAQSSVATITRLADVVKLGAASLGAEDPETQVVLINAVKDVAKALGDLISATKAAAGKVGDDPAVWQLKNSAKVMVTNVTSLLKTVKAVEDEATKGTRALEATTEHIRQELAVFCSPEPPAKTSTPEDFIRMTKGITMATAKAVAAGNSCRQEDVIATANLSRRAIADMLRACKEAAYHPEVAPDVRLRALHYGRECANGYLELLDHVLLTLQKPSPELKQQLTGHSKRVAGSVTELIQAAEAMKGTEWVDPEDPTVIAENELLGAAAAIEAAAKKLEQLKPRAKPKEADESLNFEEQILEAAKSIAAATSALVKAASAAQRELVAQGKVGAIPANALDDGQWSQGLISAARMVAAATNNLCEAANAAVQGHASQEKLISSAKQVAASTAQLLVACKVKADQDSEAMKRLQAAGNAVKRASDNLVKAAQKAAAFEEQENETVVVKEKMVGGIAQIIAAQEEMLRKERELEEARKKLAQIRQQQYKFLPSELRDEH

Consider “FLNa-Del1, filamin A mutant lacking the N-terminal actin-binding domain (CH1-CH2) (domain or fragment)”, for which the PLA dots/cell (with PMA; FLNa-Del1 cells) worked out at 7.2 dots/cell and the PLA dots/cell (without PMA; FLNa-Del1 cells) was 17.6 dots/cell.
The substance “talin (from UniProt Q9Y490 1-2541) (natural protein)” returned a PLA dots/cell (no PMA; control, FLNa WT and FLNa-Del1 cells) of 5 dots/cell; a PLA dots/cell (with 10 µM ROCK inhibitor Y-27632; FLNa WT cells, Figure 5H) of 17.7 dots/cell; a PLA dots/cell (with PMA and 10 µM EHop-016; FLNa-Del1 cells) of 4.4 dots/cell; a PLA dots/cell (with PMA and 10 µM Y-27632; FLNa WT cells) of 10.8 dots/cell. This substance also gave a PLA dots/cell (with PMA and Y-27632; FLNa-Del1 cells) of 13.2 dots/cell; a PLA dots/cell (with PMA, without EHop-016; FLNa-Del1 cells) of 20.4 dots/cell; a PLA dots/cell (with PMA, without Y-27632; FLNa WT cells) of 4 dots/cell; a PLA dots/cell (with PMA, without Y-27632; FLNa-Del1 cells) of 14.9 dots/cell. For the same substance, the PLA dots/cell (with PMA; FLNa WT cells) is 8.2 dots/cell, the PLA dots/cell (with PMA; FLNa-Del1 cells) came out at 15 dots/cell, the PLA dots/cell (with PMA; FLNa-Del2 cells) was found to be 21.2 dots/cell and the PLA dots/cell (with PMA; FLNa-WT cells) is 7.1 dots/cell. The substance further registered a PLA dots/cell (without PMA; FLNa-Del1 cells) of 4.6 dots/cell and a PLA dots/cell (without ROCK inhibitor; FLNa WT cells, Figure 5H) of 9.1 dots/cells.
